± gives the half width of the 95% confidence interval.
Columns and labels:
[1] = folding stability dG unfold from trypsin proteolysis; higher = more stable
In short: (§1)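 Digests were run with trypsin and chymotrypsin at 11 concentrations in threefold dilutions, plus a no-protease condition, on designed mini-proteins in a PA-tagged cDNA display construct. The mini-proteins were under 80 residues, had no cysteine, and were kept only when AlphaFold2 dimer inter-PAE was above 15. After sequencing, Bayesian fitting of the counts gave K50, from which unfolding free energy was derived against a sequence-predicted unfolded-state K50 and a shared folded-state K50, per protease or combined.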

[2] = folding stability dG unfold from chymotrypsin proteolysis; higher = more stable
In short: as §1

[3] = folding stability dG unfold (combined trypsin and chymotrypsin); higher = more stable
In short: as §1

Sequence	folding stability dG unfold [1] [kcal/mol]	folding stability dG unfold [2] [kcal/mol]	folding stability dG unfold [3] [kcal/mol]
SAGGSAGGSAWKKFMLEFPDGRPFMIEIDPDEPGRVKIYPPGNGKEEEIPPDDLKDLKITASAGGSAGGSAG [r3_451_TrROS]	-0.0506 ± 0.36	0.718 ± 0.27	0.507 ± 0.33
SAGGSAGGSAWRLYIGGQKIEIPPGGPVKLERHKNGWVKIEIKMPGGRKKEFTIPIPPGATSAGGSAGGSAG [r3_207_TrROS]	1.23 ± 0.14	1.76 ± 0.17	1.66 ± 0.18
SAGGSAGGSAYELVIVGTPELALKLAKEFAEKNPESVANLKIEKITAALPVPFLSPDGIPESAGGSAGGSAG [r3_89_TrMRF]	0.0947 ± 0.1	0.207 ± 0.39	0.0822 ± 0.24
SAGGSAGGSDDSPEDAQKQQAKPEIKIKLHIRFPDGKEYDLDEPFEFPINGQPMRISSIDIVYSAGGSAGGS [r12_43_TrROS]	0.419 ± 0.037	1.18 ± 0.21	0.823 ± 0.11
SAGGSAGGSDEEVEVTLYPVDPSAPDDTVYYAEVTFPNGLVARYRFRKKDGKVEGELVEVKPASAGGSAGGS [r12_1049_TrMRF]	1.65 ± 0.048	1.95 ± 0.11	1.91 ± 0.083
SAGGSAGGSDFKPVLVIELDDKTVLVFELEDGTVLVLAENEIALIPASIPAEHFPEDAKLDLDSAGGSAGGS [r12_594_TrMRF]	2.04 ± 0.12	1.76 ± 0.052	1.85 ± 0.065
SAGGSAGGSDLVRVEMLITKIVPGTGDPVETVKIEVEVPRSEIPKVIEEIPEGYEVTEIKFIPESAGGSAGG [r6_777_JUSTAS]	2.05 ± 0.079	1.18 ± 0.062	1.57 ± 0.11
SAGGSAGGSDMTMTYIIPLPDYAIVISFKIEITEVEYNPENGKPVKFRFDIEIKIEVFPPGDLSAGGSAGGS [r12_809_TrROS]	3.46 ± 0.21	4.68 ± 0.19	4.38 ± 0.29
SAGGSAGGSDPAKKPVYLLATVEVEIGEVVDPNTGEPSHEHRVTVRFLITIDPDGNISISSLTSAGGSAGGS [r12_438_TrMRF]	2.9 ± 0.2	3.25 ± 0.18	3.15 ± 0.21
SAGGSAGGSDPNNEPVYIMMKFEIEIKVERDPENGKPKAEDPITITFIIRIPPNGNLEIGIMISAGGSAGGS [r12_438_TrROS]	3.52 ± 0.11	4.33 ± 0.13	4.11 ± 0.12
SAGGSAGGSDPPVVTVEVKEETLPNGEKIYIVTVTREDGTTKTLKFPASTSEEEIKEKVEKLLSAGGSAGGS [r12_1019_JUSTAS]	3.64 ± 0.3	4.08 ± 0.18	4.17 ± 0.35
SAGGSAGGSDTIVVTLPDGTKITYDKENNEVYVYNLKTKKKIKFPKNMSLEEVLKAIKKLKKPSAGGSAGGS [r12_832_TrROS_Hall]	2 ± 0.07	2.982 ± 0.026	2.71 ± 0.082
SAGGSAGGSDWRPIKIWYPLDDLEQIKEKIREDGITVEINVQRDPNGKLYAPVTIWVPKGAKPSAGGSAGGS [r12_653_TrROS]	0.998 ± 0.039	1.57 ± 0.032	1.32 ± 0.15
SAGGSAGGSEAKIELEYDEETNTLTVRIEVDGELYEERIEVTIEPAPPPPPPVEVVVVELPEESAGGSAGGS [r12_70_TrROS_Hall]	1.56 ± 0.55	2.71 ± 0.21	2.4 ± 0.49
SAGGSAGGSEATLEVEVRVDGVLVRVRVEYDLETQELRIEVEVRPLPPPPVEVRTEYRSLEDLSAGGSAGGS [r12_813_TrROS_Hall]	1.23 ± 0.052	1.59 ± 0.26	1.5 ± 0.27
SAGGSAGGSEEEKLKKLKEKLKPPKIKVKIEVKVEYDKETGKLKVEATVEINGKKYKLTIEFPSAGGSAGGS [r20_230_TrROS_Hall]	3.11 ± 0.19	4.19 ± 0.13	3.49 ± 0.71
SAGGSAGGSEEIKKAIEEALKKMKPGEEKEVTIEIYDKKTNKKIAKIKIRIRRKKDGKLEIEFSAGGSAGGS [r20_151_TrROS_Hall]	4.01 ± 0.2	3.6 ± 0.19	3.77 ± 0.19
SAGGSAGGSEEILKALGVEPGDEVEIEMTPEELEELLALPGVEPVRVEERPDGRLRVRIRILPSAGGSAGGS [r12_750_TrROS_Hall]	3.14 ± 0.11	2.93 ± 0.077	2.99 ± 0.1
SAGGSAGGSEIKIEKAEITVEYDEETGVFRATITLPDGYRITAEFRLRPDGSLELTRVEIEEVSAGGSAGGS [r12_111_TrROS_Hall]	4.3 ± 0.19	5.37 ± 0.11	5.29 ± 0.25
SAGGSAGGSEIPDIEITIDSIEFFPDGTVRITATVRFPGGGTAKITLTLPAPPAEYEPPSDLLSAGGSAGGS [r12_558_TrMRF]	1.49 ± 0.2	1.12 ± 0.25	1.39 ± 0.5
SAGGSAGGSEKIKEALKELGYDVEIEEIEVKKNKNGKLEIKIKLKPGMSEEEKKRIEEALKKLSAGGSAGGS [r12_352_TrROS_Hall]	3.18 ± 0.4	2.79 ± 0.17	2.84 ± 0.3
